Test results published in patent US20250333501A1 (University of California, published 2025).

T1: CLDN6 endogenously expressed by human cancer cell lines (ARK2, OVCA429) (human, UniProt P56747 1-220)
T1 construct: Untagged endogenous protein; also called Endogenous CLDN6+
T1 sequence: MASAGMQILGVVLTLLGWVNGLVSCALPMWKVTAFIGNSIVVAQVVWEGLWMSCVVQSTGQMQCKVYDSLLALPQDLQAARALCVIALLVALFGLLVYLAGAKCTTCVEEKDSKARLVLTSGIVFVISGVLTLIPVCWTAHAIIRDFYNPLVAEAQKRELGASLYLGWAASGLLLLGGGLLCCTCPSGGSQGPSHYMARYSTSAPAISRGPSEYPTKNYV

T2: human CLDN6 fused to GFP, expressed on engineered HEK293T cells (HEK293T-CLDN6-mGFP) (human, UniProt P56747 1-220)
T2 construct: It calls residues 1-21 a signal peptide; also called Claudin-6; HEK293T-CLDN6-mGFP Artificial CLDN6+; not shown: mGFP tag
T2 sequence: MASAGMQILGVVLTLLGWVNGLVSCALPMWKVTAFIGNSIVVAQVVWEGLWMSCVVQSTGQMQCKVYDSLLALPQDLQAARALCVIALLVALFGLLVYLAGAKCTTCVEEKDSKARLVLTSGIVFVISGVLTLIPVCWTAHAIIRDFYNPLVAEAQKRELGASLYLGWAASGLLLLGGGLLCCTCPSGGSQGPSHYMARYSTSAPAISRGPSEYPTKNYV


How the values were obtained:
[1] = molecular target: T1, CLDN6 endogenously expressed by human …; assay: FACS, AF647-labelled mAb, OVCA429 cells
Protocol: (§1) Antibodies were purified and cell surface binding of the antibodies to CLDN6 and the antibody IC₅₀ were determined by FACS in which CLDN6 antibodies were directly conjugated with Alexa Fluor® 647 NHS Ester (Succinimidyl Ester), Cat #A20106 (ThermoFisher Scientific) following the manufacturer's protocol. CLDN6 antibodies were tested from 0.32 nM to 1000 nM (serial dilution 1:5, 6 points) in a 50 μl volume with 150,000 cells system.
(§2) CLDN6-expressing cells were used in FACS assays to determine the CLDN6 antibody's ability to bind to CLDN6 on the surface of cells and to cross-react with other CLDN family members. HEK293 T cells engineered to express human CLDN6 fused to GFP, mouse CLDN6 fused to GFP, CLDN9-GFP, CLDN4-GFP, or CLDN3-GFP, or GFP alone (without CLDN6) were used as artificial models of CLDN6 expression. ARK2, OVCA429, LS513 and MCF7 cells were used as endogenous models of CLDN6 expression, as well as models for CLDN3/4 expression.
(§3) For each type of cell tested and for each mAb, cells were detached from the surface of the culture flasks by EDTA (instead of trypsin) in order to protect the cell surface proteins. The detached cells were then incubated with Alexa Fluor®-labeled CLDN6 mAbs for 30 min in the dark on ice at a pre-determined concentration. The CLDN6 mAbs were directly labeled with Alexa Fluor® 647 NHS Ester (Succinimidyl Ester). After washing, the cells were read by a BD Accuri™ Flow Cytometer C6 to detect antibody-antigen protein binding in channel FL4H. Each antibody was tested at varied concentrations to establish a dose-fluorescence curve. The EC50/IC50 of the antibodies (the concentration of the antibody at which half the max value were calculated based on the values of FL4H (gated in viable singlet cells) using the Very Simple IC50 Tool kit available online which allows biological dose-response data to be plotted and fitted to curve types to give the EC50/IC50. The max value was the lowest concentration of the antibody at which fluorescence maxes out. The antibodies were also screened for their ability to cross-react with other CLDN proteins such as CLDN9, CLDN3, and CLDN4. These values were used to determine each antibody's relative affinity among the set of antibodies tested. Cross-reactivity data were obtained using a similar methodology, but with cells having a different expression profile for CLDN6, CLDN3, CLDN4 and CLDN9.

[2] = molecular target: T1, CLDN6 endogenously expressed by human …; assay: FACS, AF647-labelled mAb, ARK2 cells
Protocol: as §1, §2, §3

[3] = molecular target: T2, human CLDN6 fused to GFP, expressed on …; assay: FACS, AF647-labelled mAb, HEK293T-CLDN6-mGFP cells
Protocol: as §1, §2, §3

Binder | EC50 [1] | EC50 [2] | EC50 [3]
AB11 (antibody, V domains shown, Labelled with Alexa Fluor 647 NHS ester for FACS) VH: DVQLVESGGGLVQPRGSRKLSCAASGFTFSSFGMHWVRQAPEKGLEWVAYISSDSRTIYYADTVKGRFTISRDNPTNTLFLQMTSLRSEDTAMYYCARDYGRTYEAYWGQGTLVTVSA VL: DIVLTQSPASLAVSLGQRATISCRASKSVSTSGYSYIHWYQQKPGQPPKLLIYLASNLESGVPARFSGSGSGTDFTLNIHPVEEEDAATYYCQHSRELPLTFGAGTKLELK | 835 nM | 363 nM | 1700 nM
AB9 (antibody, V domains shown, Labelled with Alexa Fluor 647 NHS ester for FACS) VH: EVQLQQSGPELVKPGASVKMSCKASGYRFTDYNMHWVKQSHGKSLEWIGYINPNNGGTNYNQNFKGKATLTVNKSSSTAYMELRSLTSEDSAAYYCARDYLYFFDCWGQGTTLTVSS VL: DIQMTQSPASQSASLGESVTITCLASQTIGTWLAWYQQKPGKSPQLLIYAAASLADGVPSRFSGSGSGTRFSFKISSLQAEDFVSYYCQQLYSIPRTFGGGTKLEIK | 1160 nM | 1140 nM | 2670 nM
AB7 (antibody, V domains shown, Labelled with Alexa Fluor 647 NHS ester for FACS) VH: EVQLQQSGPELVKPGASMKISCKASGYSFTGYTMNWVKQSHGKNLEWIGLINPYNGGTNYNQKFKGKATLTVDKSSSTAYMELLSLTSEDSAVYYCARGVYDYDGFTYWGQGTLVTVSA VL: QIVLTQSPAIMSASLGDRVTMTCTASSSVSSSYLHWYQQKPGSSPKLWIYSTSNLASGVPARFSGSGSGTSYSLTISSMEAEDAATYYCHQYHRSPPTFGSGTKLEIK | 531 nM | 353 nM | 579 nM
AB12 (antibody, V domains shown, Labelled with Alexa Fluor 647 NHS ester for FACS) VH: EVKLMESGGDLVKPGGSLKLSCAASGFTFSSYAMSWVRQTPEKRLEWVASIRSGGTTYYPDSVKGRFTISRDNARNILYLRMSSLRSEDTAIYYCAKVGGNPYPMDYWGQGTSVTVSS VL: DIQMIQSPSSMFASLGDRVSLSCRASQDIGGNLDWYQQKPGGTIKLLIYSTSNLNSGVPSRFSGSGSGSDYSLTITSLESEDFADYYCLQRNAYPLTFGAGTKLELK | 2290 nM | 1300 nM | ≥ 5000 nM
AB14 (antibody, V domains shown, Labelled with Alexa Fluor 647 NHS ester for FACS) VH: QVQLQQSGPELVRPGVSVKISCKGSGYTFTDYAMHWVKQSHAKSLEWIGVISTYSGNTNYNQKFQDKATMTVDKSSSTAYMALARLTSDDSAIYYCARRGDYSLYAMDYWGQGTSVTVSS VL: DIVLTQSPASLAVSLGQRATISCKASQSVDYDGDNYVNWYQQKVGQPPKLLISAASNLESGIPARFSGSGSGTDFTLNIHPVEEEDAATYYCQQSNEDPFTFGSGTKLEIK | 1660 nM | 1300 nM | ≥ 5000 nM
AB8 (antibody, V domains shown, Labelled with Alexa Fluor 647 NHS ester for FACS) VH: QVQLQQSGAELARPGASVKMSCKASGYTFTTYTMHWLKQRPGQGLEWIGYINPRSGYSNYNQKFKDKATLTADKSSNTAYMQLNTLTSEDSKVYYCSRGELGGFAYWGQGTLVTVSA VL: DVVMTQTPLSLPVSLGDQASISCRSSQSLVHSDGNTYLYWYLQKPGQSPKLLIYKVSNRFSGVPDRFSGSGSGTDFTLKISRVEAEDLGVYFCSQSTHVPYTFGGGTKLEIK | 1090 nM | 1140 nM | 1920 nM
AB18 (antibody, V domains shown, Labelled with Alexa Fluor 647 NHS ester for FACS) VH: QVQLKQSGPELEKPGASVKISCKASGYSFTGYNMNWVKQSNGKSLEWIGNIDPYYGGSTYNQKFTGKATLTVDKSSSTAYMQLKSLTSEDSAVYYCARERSGYVFSAMDYWGQGTSVTVSS VL: NIMMTQSPSSLAVSAGEKVTMSCKSSQSVLFSSNQKNYLAWYQQKPGQSPRLLIYWASTRESGVPDRFTGSGSGTDFTLTISNVQAEDLAVYYCHQYLSSRTFGAGTKLELK | 2440 nM | 1350 nM | ≥ 5000 nM

The remaining lines, values ahead:

EC50 [1] | EC50 [2] | EC50 [3] | Binder
2470 nM | 2140 nM | 2760 nM | AB10 (antibody, V domains shown, Labelled with Alexa Fluor 647 NHS ester for FACS) VH: QIQLVQSGPALKKPGETVKISCKASGYTFTDYSMHWIKQAPGKGLKWMGWISTETGEPTYADGFKGRFDFSLETSADTAYLSINNLTNEDTATYFCTRGLWSSFAYWGQGTLVTVSA VL: DVVMTQTPLSLPVSLGDQASISCRASQSLVHSNGNTYLHWFLQKPGQSPKLLIYKVSNRFSGVPDRFSGSGSRTDFTLKISRVEAEDLGVYFCSQITHVPYTFGGGTKLEIK
2290 nM | 1150 nM | ≥ 5000 nM | AB13 (antibody, V domains shown, Labelled with Alexa Fluor 647 NHS ester for FACS) VH: QVQLQQSGAELVRPGTSVKVSCKASGYAFSNYLIEWVKQRPGQGLEWIGVINPGSGGTNYNEKFKGKATMTADKSSSTAYMHLSNLTSEDSVVYFCARSYFGRSYPYTMDYWGQGTSVTVSS VL: EIVLTQSPTTMAASPGEKITITCSASSSISSNYLHWYQQKPGFSPKLLIYRTSNLASGVPARFSGSGSGTSYSLTIGTMEAEDVATYYCQQGSSIPLTFGAGTKLELK
394 nM | 765 nM | 1430 nM | AB6 (antibody, V domains shown, Labelled with Alexa Fluor 647 NHS ester for FACS) VH: DVQLQESGPGLVKSSQSLSLTCSVTGYSITSGYYWKWIRQFPGNKLEWMGYISYDGGINYNPSLKNRISITRDTSKNQFFLKLNSVTTEDTAKYYCARFGKGAMDYWGQGTSVTVSS VL: AIVMFQSPSSLVVSAGEKVTMSCKSSQSLLNSRTRKNYLAWYQQKPGQSPKLLIYWASTRESGVPDRFTGSGSGTDFTLTISSVQAEDLAVYYCKQSYYLYTFGGGTKLEIK
